Assay results published in paper PMC6101608 (Nucleic Acids Research, 2018).

Columns and labels:
[1] = test system: HpoR (Mycobacterium smegmatis mc2 155); experiment: EMSA
[2] = test system: LtmA (Mycobacterium smegmatis mc2 155); experiment: EMSA
HpoR = target: T1, HpoR (M. smegmatis mc2 155, UniProt A0R4J9 1-199); experiment: SPR
T1 sequence: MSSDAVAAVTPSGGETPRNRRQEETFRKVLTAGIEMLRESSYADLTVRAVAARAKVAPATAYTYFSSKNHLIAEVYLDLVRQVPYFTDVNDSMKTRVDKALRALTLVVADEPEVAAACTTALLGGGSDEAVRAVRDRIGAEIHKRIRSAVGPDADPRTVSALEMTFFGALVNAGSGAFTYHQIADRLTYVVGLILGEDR

With Ms5860p the Kd [1] was 290 nM and the Kd [2] was 620 nM.

B1: LtmA (natural protein)
chain: MSDPAMESTRRRLSARQADTVERLGRAAVELISREGYAGLTVRRVAAEAGVGSATAYTYFSSKEHLVAEVFWRRLSAAPPAVHESPDPATRVVEVLQHIASLVADEPAFAGAVTTALLGKDPDVDALRQRIGADIRQRLVAALGPDVRIDVIEALELLYTGTMVWAGMGYDSYEQVVRRLEKSARLVLS
Work on B1 yielded a Kd (HpoR) of 7500 ± 800 nM.
